From article PMC11215065
Several values for one entry are separate records, joined by “and”; a condition that tells them apart may be missing. Equal entries are not always repeated.

Assays:
[1] = target: Soluble U20 extracellular domain (sU20) of HHV-6B (HHV-6B); test: SEC-MALS; EndoH-treated U20 alone; 1 mg/ml, PBS, room temperature
[2] = target: Soluble U20 extracellular domain (sU20) of HHV-6B (HHV-6B); test: SEC-MALS; U20 with intact high mannose glycans, alone; 1 mg/ml, PBS, room temperature
ULBP1-Fc [3] = test: SEC-MALS; EndoH-deglycosylated U20 with ULBP1-Fc; 1 mg/ml, PBS, room temperature, WTC-030S5 column
[4] = target: Soluble U20 extracellular domain (sU20) of HHV-6B (HHV-6B); test: SEC-SAXS; EndoH-treated U20 alone, 4.5 mg/mL, Superdex 200 Increase 5/150 GL in line with SAXS; mass by Porod volume
[5] = target: ULBP1-6xHIS soluble construct (ULBP1-6H); test: SEC-SAXS; equimolar mixture of EndoH-treated U20 and ULBP1-6H, 4.5 mg/mL, Superdex 200 Increase 5/150 GL in line with SAXS
[6] = target: ULBP1 on transduced HEK293 cells (UniProt Q9BZM6); test: flow cytometry on cells; ULBP1 (or ULBP3) HEK293 cells pretreated with sU20 at various concentrations for 5 minutes on ice, then stained with 5 nM NKG2D-Fc
[7] = target: ULBP1 on transduced HEK293 cells (UniProt Q9BZM6); test: flow cytometry on cells; ULBP1 expressing cells pretreated with soluble U20 at various concentrations, then stained with APC conjugated anti-ULBP1 (R&D Systems FAB1380A)
ULBP1-Fc [8] = test: SPR; Biacore 3000; biotinylated ULBP1-Fc (1000-2500 RU) on a Neutravidin coated CM5 chip; U20 injected at 0.125-32 μM; CD200 receptor Fc flow cell subtracted; equilibrium fit, one site specific binding, apparent; 20°C
NKG2D-Fc = NKG2D-Fc (UniProt P26718); test: SPR; format not told in the text (Supplementary Figure S1A)
NKG2D-Fc, sequence (P26718 73-216): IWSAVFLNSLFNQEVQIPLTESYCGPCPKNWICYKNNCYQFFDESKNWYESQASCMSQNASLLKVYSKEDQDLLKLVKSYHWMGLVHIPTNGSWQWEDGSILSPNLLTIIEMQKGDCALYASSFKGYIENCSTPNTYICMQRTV

Soluble U20 extracellular domain (sU20) of HHV-6B (domain or fragment), sequence (Q9QJ46 16-321 limits assumed): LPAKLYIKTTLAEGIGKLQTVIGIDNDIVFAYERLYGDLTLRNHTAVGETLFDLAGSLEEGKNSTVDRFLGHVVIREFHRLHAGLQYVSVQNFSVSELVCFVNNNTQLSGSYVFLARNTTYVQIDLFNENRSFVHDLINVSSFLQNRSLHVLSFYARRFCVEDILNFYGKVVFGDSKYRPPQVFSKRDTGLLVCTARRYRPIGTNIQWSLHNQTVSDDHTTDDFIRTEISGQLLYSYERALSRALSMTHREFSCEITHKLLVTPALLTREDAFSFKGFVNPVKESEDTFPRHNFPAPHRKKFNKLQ

| Substance | stoichiometry N [1] | stoichiometry N [2] | stoichiometry N (ULBP1-Fc [3]) | stoichiometry N [4] | stoichiometry N [5] | decrease in NKG2D-Fc binding to ULBP1 cells at 5 μM sU20 [6] [%] | reduction of anti-ULBP1 antibody binding to ULBP1 cells at 0.125 μM sU20 [7] [%] | dissociation half-life (ULBP1-Fc [8]) | Kd (NKG2D-Fc) [nM] |
| --- | --- | --- | --- | --- | --- | --- | --- | --- | --- |
| Soluble U20 extracellular domain (sU20) of HHV-6B (domain or fragment) | 2 | 2 | 1 | 2 | 1 | 90 | 60 | 1.05 min and 2.07 min | – |
| ULBP1-6xHIS soluble construct (ULBP1-6H) (domain or fragment) | – | – | – | – | – | – | – | – | 1000 |
